Residue numbers refer to the chain shown, from its start.
Key:
cMetECDHis = target: T1, cMetECDHis (human, UniProt P08581 25-932, limits assumed, biotinylated in the cross-block ELISA of Example 17); experiment: cross-block ELISA; competitor 068
T1 construct: Expressed in HEK-293F cells; also called soluble cMetECDHis; biotinylated cMetECDHis
Procedure: First, the optimal coating concentrations of the tested anti-c-Met antibodies and the optimal cMetECDHis concentration were determined. Therefore, ELISA wells were coated overnight at 4° C. with anti-c-Met HuMabs serially diluted in PBS (8 μg/mL in 2-fold dilutions). Next, the ELISA wells were washed with PBST (PBS supplemented with 0.05% Tween-20 [Sigma-Aldrich, Zwijndrecht, The Netherlands]) and blocked for one hour at room temperature (RT) with PBSTC (PBST supplemented 2% [v/v] chicken serum [Gibco, Paisley, Scotland]). Subsequently, the ELISA wells were washed with PBST and incubated for one hour at RT with biotinylated cMetECDHis serially diluted in PBSTC (1 μg/mL in 2-fold dilutions). Unbound biotinylated cMetECDHis was washed away with PBST, and bound biotinylated cMetECDHis was incubated for one hour at RT with 0.1 μg/mL Streptavidin-poly-HRP (Sanquin, Amsterdam, The Netherlands) diluted in PBST.
ELISA wells were coated with anti-c-Met antibody at a sub-optimal dose as described above. After blocking of the ELISA wells, they were incubated with the predetermined concentration of biotinylated cMetECDHis in the presence of an excess of anti-c-Met antibody. The reaction was developed as described above. Residual binding was expressed as a percentage relative to the binding observed in the absence of competitor antibody.

cMetSEMA-567His8 = target: T2, cMetSEMA-567His8 (human, UniProt P08581 25-567, limits assumed); experiment: TR-FRET; displacement of AlexaFluor-647-HGF from cMetSEMA-567His8
T2 construct: In the TR-FRET assay detected by anti-6xhis Europium3+; also called cMetSEMAHis; SEMA domain of c-Met; not shown: C-terminal His tag; the text says His9, the construct name says His8
Procedure: Therefore, the interaction of anti-c-Met antibodies with the SEMA domain of the c-Met receptor was studied using TR-FRET technology. […] The mean fluorescent intensity at 665 nm was measured on the EnVision 2101 Multilabel reader (PerkinElmer).
A 4-fold serial dilution of unlabeled anti-c-Met antibody ranging from 0.49-8000 ng/mL was tested. After overnight incubation at 4° C. in the dark, mean fluorescence intensity at 665 nm was measured using the EnVision 2101 Multilabel reader applying the following settings: Lance/Delfia dual mirror, emission filter 615-665 nm, excitation filter 320 nm, delay time 60 μs, window 100 μs, 100 flashes, 2000 μs per cycle and bidirectional row-by-row reading. To determine IC₅₀ values, the binding curves were analyzed with non-linear regression (sigmoidal dose-response with variable slope) using GraphPad Prism V4.03 software (GraphPad Software, San Diego, Calif., USA).

[1] = target: T3, recombinant human c-Met extracellular domain (R&D systems) (human, UniProt P08581 25-932); experiment: competition ELISA, residual Europium-HGF signal at 615 nm at the lower plateau of the fit; sheet prints no competing mAb ~66000, no HGF-Europium ~600; upper panel
T3 construct: extracellular domain; Bought reagent; also called coated extracellular domain of c-Met; recombinant c-Met
Procedure: (§1) ELISA wells were coated overnight at 4° C. with 0.5 μg/mL recombinant human c-Met extracellular domain (R&D systems, Minneapolis, USA) diluted in PBS. Next, the ELISA wells were washed with PBST (PBS supplemented with 0.05% Tween-20 [Sigma-Aldrich, Zwijndrecht, The Netherlands]) and blocked for one hour at room temperature (RT) with PBST supplemented with 2% (v/v) chicken serum (Gibco, Paisley, Scotland). […] Mean fluorescence intensity at 615 nm was measured using the EnVision 2101 Multilabel reader (PerkinElmer) applying the following settings: Lance/Delfia dual mirror, emission filter 615, excitation filter 340 nm, delay time 400 μs, window 400 μs, 100 flashes, 2000 μs per cycle and bidirectional row-by-row reading. To determine IC₅₀ values, the binding curves were analyzed with non-linear regression (sigmoidal dose-response with variable slope, top-values constrained to a shared value for all data-sets) using GraphPad Prism V4.03 software (GraphPad Software, San Diego, Calif., USA).
(§2) FIG. 5 depicts representative examples of HGF binding inhibition curves of anti-c-Met antibodies for binding to the extracellular domain of recombinant human c-Met. 5D5 was used as positive control antibody. All anti-c-Met antibodies in the experiment shown were able to compete with Europium^{3±}-conjugated HGF for binding to recombinant c-Met. […] Without adding Europium³⁺-conjugated HGF, roughly ˜600 relative fluorescent units (RFU) were detected, indicating the signal when maximal inhibition is accomplished. When binding of Europium³⁺-conjugated HGF was not inhibited, approximately ˜66,000 RFU were detected.

[2] = target: T3, recombinant human c-Met extracellular …; experiment: competition ELISA on coated recombinant c-Met extracellular domain; blocked ligand Europium-conjugated HGF; column headed EC50 on the sheet, called IC50 in paragraph 270; upper panel
Procedure: as §1, §2

[3] = target: T3, recombinant human c-Met extracellular …; experiment: competition ELISA, residual Europium-HGF signal at 615 nm at the lower plateau of the fit; sheet prints no competing mAb ~66000, no HGF-Europium ~600; lower panel
Procedure: as §1, §2

B1: anti-c-Met HuMab 005 (IgG1) (antibody, V domains shown)
VH: QVQLVQSGAEVKKPGSSVKVSCKASGGTFSSYGFGWVRQAPGQGLEWMGRISPILGIANYAQMFQGRVTITADKSTSTAYMELSSLRSEDTAVYYCARDVGYDWPDTFDIWGQGTMVIVSS
VL: DIQMTQSPSSLSASVGDRVTITCRASQGISSWLAWYQQKPEKAPKSLIYAASSLQSGVPSRFSGGGSGTDFTLTISSLQPEDFATYYCQQYNSFPPTFGQGTKVEIK
notes: also called TH1016-005; PC1016-005
- residual binding, % of no competitor (cMetECDHis): 129%
- % inhibition (cMetSEMA-567His8): 92%
- IC50 (cMetSEMA-567His8): 0.16 mg/L
- Bottom [1]: 6940 RFU
- IC50 [2]: 0.0362 mg/L

B2: IgG1-1016-022 (antibody, V domains shown)
VH: QVQLVESGGGVVQPGRSLRLSCAASGFTFSSYAMHWVRQAPGKGLEWVAVISYDGSNKYYADSVKGRFTISRDNSKNTLYLQMNSLRAEDTAVYYCARELLWFGELWGYFDLWGRGTLVTVSS
VL: B1 VL with L11V, Q38H, E41G, S46L, G65S, Q90E, Y91A, N92S, P95T, P96W
notes: also called TH1016-022; PC1016-022
- residual binding, % of no competitor (cMetECDHis): 104%
- % inhibition (cMetSEMA-567His8): 77%
- IC50 (cMetSEMA-567His8): 0.37 mg/L
- Bottom [1]: 18200 RFU
- IC50 [2]: 0.00927 mg/L

B3: anti-c-Met HuMab 098 (IgG1) (antibody, V domains shown)
VH: QVQLVQSGAEVKKPGASVKVSCKASGYTFTNFGISWVRQAPGQGLEWMGWISAFNGHTDYSQKVQGRVTMTTDTSTSTAYMELRSLRSDDTAVFYCARSHYYGSGSPFDYWGQGTLVTVSS
VL: B1 VL with S31N, G65S, Q89H, N92K, F94Y, P96W
notes: also called TH1016-098; PC1016-098
- residual binding, % of no competitor (cMetECDHis): 18%
- % inhibition (cMetSEMA-567His8): 98%
- IC50 (cMetSEMA-567His8): 0.55 mg/L
- Bottom [3]: 12700 RFU

B4: anti-c-Met HuMab 006 (IgG1) (antibody, V domains shown)
VH: B1 VH with Y32F, F34I, S52F, I57T, S84T, W104S, P105A, T107A, I118T
VL: B1 VL with G65S, F94Y
notes: also called TH1016-006; PC1016-006
- residual binding, % of no competitor (cMetECDHis): 129%
- % inhibition (cMetSEMA-567His8): 92%
- IC50 (cMetSEMA-567His8): 0.16 mg/L
- Bottom [1]: 5630 RFU
- IC50 [2]: 0.0799 mg/L

B5: anti-c-Met HuMab 101 (IgG1) (antibody, V domains shown)
VH: QVQLVQSGGEVKKPGASVKVSCKASGYTFTRHGITWVRQAPGQGLEWMGWISADNGNTNYAQKFQDRVTMTTDTSTSTAYMELRSLRSDDTAVYFCARVFRYFDWLLPYFDYWGQGTLVTVST
VL: not shown
- residual binding, % of no competitor (cMetECDHis): 45.9%
- % inhibition (cMetSEMA-567His8): 96%
- IC50 (cMetSEMA-567His8): 0.53 mg/L
- Bottom [3]: 8380 RFU

B6: anti-c-Met HuMab 045 (IgG1) (antibody, V domains shown)
VH: EVQLLESGGGLVQPGGSLRLSCAASGFTFSSYAMSWVRQAPGKGLEWVSVISGSGGITYYADSVKGRFTISRDNSKNTLYLQMNSLRAEDTAVYYCARDRGWGSDYWGQGTLVTVSS
VL: EIVLTQSPATLSLSPGERATLSCRASQSVSSYLAWYQQKPGQAPRLLIYDASNRATGIPARFSGSGSGTDFTLTISSLEPEDFAVYYCQQRSNWPFTFGPGTKVDIK
notes: also called TH1016-045; PC1016-045
- residual binding, % of no competitor (cMetECDHis): 113%
- % inhibition (cMetSEMA-567His8): 92%
- IC50 (cMetSEMA-567His8): 0.17 mg/L
- Bottom [1]: 12600 RFU
- IC50 [2]: 0.0165 mg/L

B7: IgG1-1016-058 (antibody, V domains shown)
VH: EVQLVESGGGLVKPGGSLKLSCAASGFTFSDYYMYWVRQTPEKRLEWVATISDDGSYTYYPDSVKGRFTISRDNAKNNLYLQMSSLKSEDTAMYYCAREGLYYYGSGSYYNQDYWGQGTLVTVSS
VL: AIQLTQSPSSLSASVGDRVTITCRASQGLSSALAWYRQKPGKAPKLLIYDASSLESGVPSRFSGSGSGTDFTLTISSLQPEDFATYYCQQFTSYPQITFGQGTRLEIK
notes: also called IgG1-058; TH1016-058
- residual binding, % of no competitor (cMetECDHis): 119%
- % inhibition (cMetSEMA-567His8): 99%
- IC50 (cMetSEMA-567His8): 0.15 mg/L
- Bottom [1]: 5200 RFU
- IC50 [2]: 0.00727 mg/L

B8: anti-c-Met HuMab 008 (IgG1) (antibody, V domains shown)
VH: EVQLVQSGAEVKKPGESLKISCKGSGYSFTSYWIGWVRQMPGKGLEWMGIIYPGDSETRYSPSFQGQVTISADKSISTAYLQWSSLKASDTAMYYCARQEITGEFDYWGQGTLVTVSS
VL: AIQLTQSPSSLSASVGDRVTITCRASQGISSALAWYQQKPGKAPKLLIYDASSLESGVPSRFSGSGSGTDFTLTISSLQPEDFATYYCQQFNSYPRTFGQGTKVEIK
notes: also called TH1016-008; PC1016-008
- residual binding, % of no competitor (cMetECDHis): 112%
- Bottom [1]: 30100 RFU
- IC50 [2]: 0.00788 mg/L

B9: anti-c-Met HuMab 035 (IgG1) (antibody, V domains shown)
VH: B8 VH with E57D, S84N
VL: B7 VL with L29I, R37Q, T92N, Q96M, I97Y, R104K
notes: also called P1016-035; TH1016-035-D09
- residual binding, % of no competitor (cMetECDHis): 175%
- Bottom [1]: 23300 RFU
- IC50 [2]: 0.0348 mg/L

B10: IgG1-024 (antibody, V domains shown)
VH: EVQLLESGGGLVQPGGSLRLSCVASGFTFSSYAMSWVRQAPGKGLEWVSAISGSSGGSTYYVDSVKGRFTISRANSKNTLYLQMNSLRAEDTAVYYCAKDLDRGWMGYFGYWGQGTLVTVSS
VL: DIQMTQSPSSVSASVGDRVTITCRASQGISSWLAWYQHKPGKAPKLLIYAASSLQSGVPSRFSGSGSGTDFTLTISSLQPEDFATYYCQQANSFPTFGQGTRLEIK
notes: also called TH1016-024; PC1016-024
- residual binding, % of no competitor (cMetECDHis): 12%
- % inhibition (cMetSEMA-567His8): 95%
- IC50 (cMetSEMA-567His8): 0.39 mg/L
- Bottom [1]: 13100 RFU
- IC50 [2]: 0.0168 mg/L

B11: IgG1-1016-069 (antibody, V domains shown)
VH: QVQLVQSGAEVKKPGASVKVSCETSGYTFTSYGISWVRQAPGHGLEWMGWISAYNGYTNYAQKLQGRVTMTTDTSTSTAYMELRSLRSDDTAVYYCARDLRGTNYFDYWGQGTLVTVSS
VL: DIQMTQSPSSVSASVGDRVTITCRASQGISNWLAWFQHKPGKAPKLLIYAASSLLSGVPSRFSGSGSGTDFTLTISSLQPEDFATYYCQQANSFPITFGQGTRLEIK
notes: also called clone 069; TH1016-069
- residual binding, % of no competitor (cMetECDHis): 10.1%
- % inhibition (cMetSEMA-567His8): 97%
- IC50 (cMetSEMA-567His8): 0.54 mg/L
- Bottom [3]: 15000 RFU

B12: anti-c-Met HuMab 181 (IgG1) (antibody, V domains shown)
VH: B11 VH with E23K, T24A, H43Q, A53T, N104A
VL: B11 VL with F36Y
notes: also called TH1016-181; PC1016-181
- residual binding, % of no competitor (cMetECDHis): 6.5%
- % inhibition (cMetSEMA-567His8): 93%
- IC50 (cMetSEMA-567His8): 0.34 mg/L
- Bottom [3]: 16300 RFU
